Test: soluble fraction after stress (log2 fold change); higher = more stays soluble; pooled small domains, quantitative proteomics
Conditions: stress: 75 degC
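Further: 20 min heating vs room temperature control held 20 min.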

Row | Sequence | soluble fraction (log2)
1 | HMEEDPVISQAQRQALFKLAHDHFGQEEGNKVILRLIGEHGLRSTTNMTASVYKTVTDALIQVIESMVEG | -0.45
2 | HMEEEDELALFLREERKNYDLTLTDVHEKTGIPQKVLKEFQWGDAQLTDRQRYTLTQYVEEAREYFQENA | 0.161
3 | HMEEEVKVPKIKGLTEAEAKAKLKSEGLESGTARSAYSDTVEEGHIISQSIQEGTKVPKGTAVSYEVSKGK | 0.149
4 | HMEEGKVKRMAMDMVDAFYDKVSAMVDDNNDLGRSVVDAWDDEEENPPEYMLDDETRAILVNAGKIEPE | 0.298
5 | HMEEHSLRKQEMLRIIEALEQLTPKEKTVVVLYYFKGVLFKDIAMLLDVTEGRISQLHTAAMGRLKKLMD | -0.14
6 | HMEEIDLTPAEEILNKLPDNSRGYLIPTLNKIQNAYRFLPDPAMELLMEFFNVSRAEIFGVISFYPQLMI | -0.127
7 | HMEEIPYGVISAKAGAAAYDYIKKSIELGIEKKIDGVATAPIQKEAIHMAGISYIGHTEMYQGIT | 0.178
8 | HMEEKEIGQTLSVKIRENVLSKLDMTRDLEDEEVKHIIEHEIWLAAKKHYISLEERNSIKRGIFNSL | -0.895
9 | HMEELELTIDGEMVGRIDKQLGHHFDQFSRSQIQHWIEDGHVLVNGKQVKPKYKLLVGDHVQIIPEEPQK | 0.261
10 | HMEELIIQEELANKRLDIAISLLFPELTRAHAQKLIKEGSVLVDGKPRKASYPLTAGKRLSVTLPEPE | -0.172
11 | HMEELPVLHLKHVVVEGESLWKLAEQYLNDGTRWQEIYMLNRENISNPDLIREGQELNIQFLQGE | -0.382
12 | HMEENIKKDIEVPNIEGLTIDEAKKRLKEVNLNISIEDMEEKEGTEIITQQLPKAGIKVKEGVAIIAY | 0.227
13 | HMEEPEFEPYVVRLTAIALNVRTGPGTQYPVAMVIRGGGAFTIVAEENGFGLLKSGAGWIMLQHTERV | -2.61
14 | HMEEQELQLIQFPIASGSAWAGKAVRELILPPETLLVMLIRGTETMIPKGDTMVQEGDTAVLSASAYRDD | -0.472
15 | HMEEQKYEYHLGDVVYLGVDKYEILGITNNIVTLYDPEFPLLNKQLDFDEFEKRVKDNYANEHLKVT | -0.324
16 | HMEERDMKGSISDLVERYADQLTDEQLEEIVLGIKNGLLEEDVKSYFFLPAEDMRRIRTALEQVR | 0.0219
17 | HMEESEMIAFATVAHRIVGKPVEAVMRSYRNRDNIPADIAAIVSSKFTFSVTMAEASYRNPKKSYQVNSII | 0.275
18 | HMEETLLLRESVRSALAMLAPTLRITLEMYVYRQLSPTEIALRSGVSISMVRRRLGYGLYKLRTQLIDA | -0.121
19 | HMEFEIGQEDSKKSVKQFLYNTLRLSHGQVTALKRQERGILLNGERVFVTALLQEGDRLSLLLE | -1.7
20 | HMEFFIIDHNGQQAGPFSFDQLVQKGISPETLVWKQGMADWNPAWKVEELKAVLEAVEANQSNQKAQ | ≥ 1.04
21 | HMEFGEVLAQLRQKRHISQAELGRAIFVSGGTISNYEKGVHFPDVEKLLLLADYFNVTTDYLLGRT | -2.65
22 | HMEFNQAVQDVNELSMQYAKSDVLWPEFEPKVLAFAKNELSQMPPNQWKFALQTFYNGLKQAA | -0.576
23 | HMEFPLSPHQYSVLRLMAQGLSNKQIAERLFLSENTVKGYVQEVLRRLGARNRLEAVMIANRRGWL | -0.316
24 | HMEFPYISGVDVGTISNKEFARFETTKASDIVIALDKSGIPFSARFGDSEIVLTYDGSYKEEVEEIIAKV | 0.172
25 | HMEFSYMDQGLERYRAFLETHGHGNVPESYHELKLVNFVAHIRKLYRMNLLSEERRRALDEAGFVF | -2.5
26 | HMEFVEERRNRMLDYIGENKRADVPELARHFDVTEVTIRRDLLILEQDGKLIRTHGGAMINR | -0.536

Row | Sequence | soluble fraction (log2)
27 | HMEGDKEIPNVIGKSINDAKKILEQAGLKLGEVKKVNDSSVAKNVVLSTNPNAGTKVSAGDAVSITVAEG | 0.106
28 | HMEGGLIMDRIEKGLQSGVMPDLRGLNLKDALYLLESYVQVQVIGSGGVIKQSIKTGDKFIMGSVIKLEL | -0.138
29 | HMEGLATRLRFLRQARGLSYHALARLSGVTHTALHQIEAGKNIPGLDTAEKIAMALDVDPRWFAYGRGDPS | -3.18
30 | HMEGPALKVWKARYLRAAILEQLLSDRWDDRGGQPIRVVVNEPTNSLLIRIPRHLWPEAEKLLQELDQR | -2.34
31 | HMEGTEILVNIRKGMTKEEIASLLVSKGLVEDKNTFLVQTALYTSDRYPIQPGSYTLNTAQTPEEMLAVMT | -0.0935
32 | HMEGVNLTVQEAKQMAAIIAPLLKQGQSPYQIVTNHPELGISEKTLYNYIENDVFHEIAGITVMDL | -0.819
33 | HMEHIVNELDRKVIDYLQSHYDAKLNDIAQGIGVSKATATKSIRKLVQTGIVHVVGSSGTGTSYNLTE | -0.465
34 | HMEHVVFEVTESGELENNTAVKHVLNSFNNKSLNLAIDDFGTGYSNLRYIRDMMFGIIKIDRLFIKDINES | 0.324
35 | HMEIDFDKINSIFNDANKLYEEGDYFEANNLYKNIVSSNIISKDLYYNLGLSYAKIGSNGYAILWYERALN | -0.0259
36 | HMEIEEIDYGTFLQMVEDGVVEKIELTDTQIFLTSTVDNDDKVYTTGVMPDQDLTNRLIEAGVVNFGKVV | 0.134
37 | HMEIFSIEPDSYLGSGEEIASYYREGVTVIVNMAKLSDAESLRMVDFMSGLKLALLGNIKRITKHVYLLTP | -0.0777
38 | HMEIITIVSDINGKRIDAWLSEKLENYSRSFIQKLIQNENVKVNNNIVKANYKLKNGDAVAVSIPEPV | 0.179
39 | HMEILNYVVSDGQSGIRIDRYLSDSNEDLSRSYIQKLLKEQKVTVQGTFVKANYKVQAGDVITVEVPDMA | -0.884
40 | HMEILPAYRDIKKEALLGNINAEFKYVNLLLEHNYIEQAFNIIEDMKTRVDDNPEFEELKSRVADAYLMY | -1.56
41 | HMEILTLEELKRLMAKAKLKQNQISGHAGVSKQQISMILAGKRNITKDVSDNLKANLAEYFP | -0.651
42 | HMEILVSTRRHEIASLLSRKKRVSFFELFPEKTKEYVVATFLAILEMAKAREVNITQEDTFDEIIVEEA | -2.18
43 | HMEIPTPAELREKRIRMGLKQADVARMAGISQSMVARIESGSVDPRVSTLAKIVEVLQAAER | -0.488
44 | HMEISLEAKMAEVREQVRGLAGINFRTLLEMQASRSNIIVTFLAILELMKIGAIQIRQEEIFGEIIIDSRD | -0.104
45 | HMEISPGDVFKQLPGIGDDLSRRVVESLGIQSLEELESAAHDGRLEQVEGFGERRVQMVRAVLTGMLS | -0.00517
46 | HMEITTEDIAAQVASWIVRLSEDLTSTDRAALQIEFEQWQQTDSRRAEIAHKMLSLIGQAEQLRKT | -0.712
47 | HMEKAISSLTLEEAKKRLEMVRSEKDASLQIYKETGSETARVTAENYGKEENSLLLHISEMSNIV | 0.425
48 | HMEKFTGELSQEEKNVLDALSHEEMHVDIIIKLTKLETSAVSSTLSLLEIKGLIKNIGGQNYIK | 0.543
49 | HMEKIIFEISEEGKRLDLYIAERTELTRTRIQQLIKDGNINVNNKKSKPSYKVEKNDFIEMIIPDE | -1.23
50 | HMEKINLIIEEDNNLRLDKVIAMQLQELSRTQIQDMINQGLVLVNQKKEKASYKTKLNDEIEITILD | -1.13
51 | HMEKKDTYTVKNGDSLWGIARTELGDGGRFREIYTLNADTIEAEAKKRGRSSSSEGHWIYPGSVLRLP | 0.304
52 | HMEKKGTVVIATVKGDIHDIGKNIVKVLLENYGFDVIDLGKDVPPEAVVEAVQQSGARLVGLSALM | -0.898

Row | Sequence | soluble fraction (log2)
53 | HMEKKSKLVLAVLQGSDSDNTIRNLNERGFMVTVLSSTGGFLKKKSTTVMIGVEEDRLEEALDVLQKYAG | -0.549
54 | HMEKKTILIPPVITVRALAEISQIPVNRLLQELIKNGVFTSINEKIDFDTAVIIGADLNLDIQLL | -1.86
55 | HMEKLPRYILPGVPKVKSINISSALDGLVQDYSREFNISQKDIFQIALVEFFKKYGYHNAVKAVL | -2.29
56 | HMEKLSMLKIKELFRLAIEMNLSHRQIAQSLNVSHTVVNRYLKRFKKSNLSYETLLKLGDKEIISALYEH | -3.67
57 | HMEKPAQDVLASHREWMGEMIKAEHMTAKQVWRLLRERADIGVSYPTVKRYLRAHFQFGGPS | -1.57
58 | HMEKRLDYTFGLNKEQLLYLTKSIKDGDFYNVSFIDGTEKKLNRVGSTKEVHKYVNFLMTNDGIVKK | -0.389
59 | HMEKSLKELAQGVGQKVLTSGRPYHFDPMSAMERRVVHMTLMEMDGLRTESEGEGRFRHVVVFPA | -0.0884
60 | HMEKTEQMQVILDYIARYGEINNEKVQEILGVKRTRAYTILKQMVENGFVTTNGRGEEKKYYSIR | -1.25
61 | HMEKTIQIYDNIIIKDFAEKMEVSPSQVITKLIGLGVMANLNQPIDINSAVIVGKEFGFNVESM | -1.29
62 | HMEKVLPFEFERKFKTNHTAWDFFSNQAPPSYRKTVIHWILSAKQEITRISRLEKLIAASEQQKRI | -0.518
63 | HMEKYIVNQEEQGKRLDIYVVNKSSELTRTAVQRLIEQEHILVNGRKQKASYKVLEGDIITIERV | 0.753
64 | HMEKYTDDLEIAAEIARLETLMEGNGRVLIRPSGTEPLVRVMIEGNDIEQITKLAEDLAALLNKRF | -0.717
65 | HMELDFNSVYRQLNHEQKQAYQSIKSVLEQKISGSELDKKLKQAQQAFVAKFKENPNFEVPK | 0.608
66 | HMELDIGKKAIVIEKIDPEAGTGRVRIEGVDWGAKTADSSVIEKGETVVVKAKGAAFVTVAK | 0.0983
67 | HMELEAFPNPTDMFLSFTTKEKTPLAIYDINGKQVLYVEQITSSSKINVSKLSEGVYFAKTNQGTVKWVK | -2.35
68 | HMELEQLKSQLTGFLKANREQIFTAQNLADGLRMTDSQGYKQVVNALNASVRDGDVIDIKNGYQYNKN | 0.0444
69 | HMELEWENYSLAGEIKTTVMLYQNRRNGLPEEAKQKADALMKQLKQAVIENDAQKVEKIDDALTALLFE | -0.564
70 | HMELGYTPNNLRSVRAKYGLTQKQVAEITGLKTWHPVNRWEAPVEAAYHADMPHTKWLKLLDELSSR | -1.45
71 | HMELKYIDYDEALVVYAKTVTASGGGLSGVKDEGGIRKVLDFVQNDLYYPTFVDKLTYLVFGL | 0.168
72 | HMELLPAERRQQLVDWFKSNQAGTSQDLARMFGISVSTIRRDLDLLASEGLVKRTHGGAVSIR | -0.055
73 | HMELLPFEFARANRVLLRVNESDLVVSPDANHSAVTEILRLNNNIETIKSVDAEAFDKILSSIYSG | -0.804
74 | HMELLSVPSRLGTFFLGGEAGHIIRLYLPGDPTPRIAEHETPVLSEARRQLLEYLAGRRTAFSFPL | -0.0691
75 | HMELNEIEFENLKESIIIHLEKESLSPHELVKHIQTIHPDKVTAVIQWMLENGFIKTDAGGQLTLVSK | 0.199
76 | HMELNELTSRELMVAEQVARGASNREISEALSISERTVKAHLSAAFEKLGVRDRVQLALAMNNIPT | -0.106
77 | HMELNKNDLKIIKNISHIYPYFTPVKILQLILSKKFKTIDYNKILKSTSILTTDRSHLYYILNN | 0.0816
